Measurements: the nanobody polyreactivity screen of Harvey et al. (2022)

Assay: yeast display, Sf9 membrane polyspecificity reagent, FACS + sequencing; frameworks hold sequencing errors
Outline: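 Galactose induction of a Saccharomyces cerevisiae BJ5465 synthetic nanobody display library ran 36–48 hours. The cells were then stained for 1 hour at 4 °C with 10% biotinylated, detergent-solubilized Sf9 membrane reagent, pulled down on streptavidin microbeads and FACS-sorted into low and high (top ~1%) gates on expression and reagent-binding fluorescence. Labels for polyreactivity follow the gate of origin.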
In the case of “QVQLVESGGGLVQAGGSLRLSCAASGSTIDHNAMGWYRQAPGKERELVATISSSGGSTYYADSVKGRFTISRDNAKNTVYLQMNSLKPEDTAVYYCAVRAYYWRSYPYNYWGQGTQVTVSS”, the “polyreactivity (PSR sort gate)” value was “high polyreactivity”. In the case of “QVQLVESGGGLVQAGGSLRLSCAASGSTIFIYAMGWYRQAPGKERELVAAISGSGGTTYYADSVKGRFTISRDNAKITVYLQMNSLKPEDTAVYYCATDITLWYAYSHEGLYIGYYWGQGTQVSVSS”, the “polyreactivity (PSR sort gate)” value was “low polyreactivity”. For “QVQLVESGGGLVQAGGSLRLSCAASGSTIFSYAMGWYRQSPGKERELVAAITYRSSRTYYADSVKGRFTISRDNAKNTVYLQMNSLKPEDTAVYYCARGGTAYRYHMDYWGQGTQVTVSS”, the “polyreactivity (PSR sort gate)” value was “high polyreactivity”. In the case of “QVQLVESGGGLVQAGGSLRLSCAASGSTIGIYAMGGYRQAPGKERELVAAISSGGSTNYGDSVKGRFTISRDNEKNTVYLQMNSLKQEDTAVYYCAVESVYEYGGYVDSAYDYWGQGTQVTVSS”, the “polyreactivity (PSR sort gate)” value was “low polyreactivity”. With “QVQLVESGGGLVQAGGSLRLSCAASGSTIGPYARGWYRQAPGKERELVAAIRYSSVRTYYADSVKGRFTISRDNAKNTVYLQMKSLKPEDTAVYYCNAVFWSYTEWGRSDYWGQGTEVTVSS” the “polyreactivity (PSR sort gate)” value was “low polyreactivity”. In the case of “QVQLVESGGGLVQAGGSLRLSCAASGSTIGRYAMGWYRQAPGKERELVASIRSSGSTYYADSVKGRFTISRDNAKNTVYLQMNSLKPEDTAVYYCNRGVYYGSRYNYWGQGTQVTVSS”, the “polyreactivity (PSR sort gate)” value was “high polyreactivity”. In the case of “QVQLVESGGGLVQAGGSLRLSCAASGSTIHYYAMGWYRQAPGKERELVAAISSSGVSTYYADSVKGRFTISRDNAKNTVYLQMNSLKPEDTAVYYCNRASVFHYRWYYYGGQGTQVTVSS”, the “polyreactivity (PSR sort gate)” value was “high polyreactivity”. For “QVQLVESGGGLVQAGGSLRLSCAASGSTIIDYDMGWYRQAPGKERELVAGISWSGGRTYYADSVKGRFTISRDNAKNTVYLQMNSLKPEDTEVYYCNKVGRGARTSDYWGQGTQVTVSS”, the “polyreactivity (PSR sort gate)” value was “high polyreactivity”. In the case of “QVQLVESGGGLVQAGGSLRLSCAASGSTILRYAMGWYRQAPGKERELVATISRSDDGTYYADYVKGRFTISRDNAKNTVYLQMNSLKPEDTAVYYCGARSWYLYYYWGLGTQVTVSS”, the “polyreactivity (PSR sort gate)” value was “low polyreactivity”. For “QVQLVESGGGLVQAGGSLRLSCAASGSTILVNAMGWYRQAPGKERELVAAISRGGSTYYADSVKGRFTISRDNAKNTVYLQMTSLKPEDTAVSYCAARGVYVKYYYWGQGTQVTVSS”, the “polyreactivity (PSR sort gate)” value was “high polyreactivity”. For “QVQLVESGGGLVQAGGSLRLSCAASGSTINYYAMGWYRQAPGKERELVAAISRRSGSTYYADSVKGRFTISRDNAKNTVYLQMNSLKPEDTAVYYCAAGYGGTFNWGQGTQVTVSS”, the “polyreactivity (PSR sort gate)” value was “high polyreactivity”. With “QVQLVESGGGLVQAGGSLRLSCAASGSTINYYAMGWYRQAPGKERELVAAISSGTSTYYADSVKGRFTISRDNAKNTVYLQMNSLKPEDTAVYYCARRYYYQYRYDYWGQGTQVTVSS” the “polyreactivity (PSR sort gate)” value was “high polyreactivity”. In the case of “QVQLVESGGGLVQAGGSLRLSCAASGSTIPDNTMGWYRQAPGKEREFVAAISRIGGTYYADSVKGRFTISRDNAKNYVYLQMNSLKPEDTAVYDCNAYPQGLSGRYHGFDYWGQGTQVTVST”, the “polyreactivity (PSR sort gate)” value was “low polyreactivity”. With “QVQLVESGGGLVQAGGSLRLSCAASGSTIPNYAKGWYRQAPGKERELVARIRWNGDSTYYADSVKGRFTISRDNAKNTVYLQMNSLKPEDTAVYYCARQGYTLYRTRYRYDYWGQGTQVTASS” the “polyreactivity (PSR sort gate)” value was “high polyreactivity”. In the case of “QVQLVESGGGLVQAGGSLRLSCAASGSTIPRHAMGWYRQAPGKERELVAAITSGGSTNYADSVKGRFTISRDNAKNTVYLQMNSLKPEDTAVYYCAADVIVRVYYYYYVLMDYWGQGTQVTVSS”, the “polyreactivity (PSR sort gate)” value was “low polyreactivity”. With “QVQLVESGGGLVQAGGSLRLSCAASGSTIPSYAMGWYRQAPGKERELVASITYSDGTTRYADSVKGRFTISRDNAKNTVYLQMNSLKPEDTAVYYCAKYYYTSIVGYDSWGQGTQVTVSS” the “polyreactivity (PSR sort gate)” value was “low polyreactivity”. In the case of “QVQLVESGGGLVQAGGSLRLSCAASGSTIPSYAMGWYRQAPGKERELVASITYSDGTTRYAYSVKGRFTISRDNAKNTVYLQMNSLKPEDTAVYYCNAVYYREGMDYWGQGTQVTVSS”, the “polyreactivity (PSR sort gate)” value was “low polyreactivity”. In the case of “QVQLVESGGGLVQAGGSLRLSCAASGSTIQQYAMGWYRQAPGKEREFVAAISWRGGRTYYADSVKGRFTISRDKAKNTVYLQMNSLKPEDTAVYYCAVDPSIYRLSAYYYDYWGQGTQVTVSS”, the “polyreactivity (PSR sort gate)” value was “low polyreactivity”. For “QVQLVESGGGLVQAGGSLRLSCAASGSTIRYYAMGWYRQAPGKERELVAAISYGGGITNYADSVKGRFTISRDNAKNTVYLQMNSLKPEDTAVYCCAAYYRITRYDYWGQGTQVTVSS”, the “polyreactivity (PSR sort gate)” value was “high polyreactivity”. In the case of “QVQLVESGGGLVQAGGSLRLSCAASGSTISGNAMGWYRQAPGKERELVAAISQSGGSTYYADSVKGRFTISRDNAKNTVYLQMNSLKPEDTAVYYCNRLYYFLARRMDSWGQGTQVTVSS”, the “polyreactivity (PSR sort gate)” value was “high polyreactivity”. With “QVQLVESGGGLVQAGGSLRLSCAASGSTISGYAMGWYRQAPGKERELVATISRGGSTNYADSVKGRFTISRDNAKNTVYLQMNSLKPEDTAVYYCAAQTYVWWVKYHSWGQGTQVTVSS” the “polyreactivity (PSR sort gate)” value was “low polyreactivity”. In the case of “QVQLVESGGGLVQAGGSLRLSCAASGSTISSYAMGWYREAPGKERELVAAIDRSVSTNYADSVKGRFTISRDNAKNTVYLQMNSLKPEDTAVYYCNARHPTDDIVIYDYWGQGTQVTVSS”, the “polyreactivity (PSR sort gate)” value was “low polyreactivity”. With “QVQLVESGGGLVQAGGSLRLSCAASGSTIVRYAMGWYRQAPGKERELVASISSGGTTNYADSVNGRFTISRDNAKNTVYLQMNSLKPEDTAVYFCNGTWAYRGHGYWGQGTQVTVSS” the “polyreactivity (PSR sort gate)” value was “low polyreactivity”. With “QVQLVESGGGLVQAGGSLRLSCAASGSTIWIYAMGWYRQAPGKERELVAAINWSGGNTYYADSVKGRFTISRDNAKNTVYLQMNSLKPEDTAVYYCAAAFYIYGVEGDYWGQGTQVTVSS” the “polyreactivity (PSR sort gate)” value was “low polyreactivity”. With “QVQLVESGGGLVQAGGSLRLSCAASGSTIYFNAMGWYRQAPGKERELVAAIDWSGGSTYYADSVKGRFTISRDNAKNTFYLHMNSLKPEDTAVYYCAAAYHYYGNTVGYADYDYWGQGNQVTVSS” the “polyreactivity (PSR sort gate)” value was “low polyreactivity”. In the case of “QVQLVESGGGLVQAGGSLRLSCAASGSTIYFNGMGWYRQAPGKERELVAAITSGGSTDYADSVKGRFTISRDNAKNTVDLQMNSLKPEDTAVYYCAADGEDSLWTGYDYDYWGQGTQVTVSS”, the “polyreactivity (PSR sort gate)” value was “low polyreactivity”. For “QVQLVESGGGLVQAGGSLRLSCAASGSTIYFYAMGWYRQAPGKERELVAAISGSGGRTYYADSVKGRFTISRDNAKNTVYLQMNSLKPEDTAVYYCAAEWYPYSDREFLYYYWGQGTQVTVSS”, the “polyreactivity (PSR sort gate)” value was “high polyreactivity”. For “QVQLVESGGGLVQAGGSLRLSCAASGSTIYGYAMGWYRQAPGKERELVAAISWSGGRTYYADSVKGRFTISRDNAKNTVYLQMNSLNPVDTAVYYCNTLRRLTGRYGWSSKYYYWGQGTQVTVSS”, the “polyreactivity (PSR sort gate)” value was “high polyreactivity”. For “QVQLVESGGGLVQAGGSLRLSCAASGSTIYNNAMGWYRQAPGKERELVAAITRTGGRTYYADSVKGRFTITRDNAKNTVYLQMNSLKREDTAVYYCAATYPSGRDLSFDYWGQGTQVTVSS”, the “polyreactivity (PSR sort gate)” value was “high polyreactivity”. With “QVQLVESGGGLVQAGGSLRLSCAASGSTIYRNTMGWYRQAPGKERELVAAISRSGSSTYYADSVKGRFTISRDNAKNTVFLQINSLKPEDTAVYYCAKEGLSYRYYYWGQGTQLTVSS” the “polyreactivity (PSR sort gate)” value was “high polyreactivity”. For “QVQLVESGGGLVQAGGSLRLSCAASGSTIYSYTMGWYRQAPGKERELVAAISRGSSTYYADSVKGRFTISRDNAKNTVYLQMNSLKPEDTAVYYCAAQYRQIYYSYFEYYWGQGTQVTVSS”, the “polyreactivity (PSR sort gate)” value was “high polyreactivity”. With “QVQLVESGGGLVQAGGSLRLSCAASGSTLANYAMGWYRQAPGKERELVAAINSGGSTYYADSVKGRFTISRDNAKNTVYLQMNSLKPEDTAVYYCAAETPNYYGRWEPVWHYYWGQGTQVTVSS” the “polyreactivity (PSR sort gate)” value was “high polyreactivity”. In the case of “QVQLVESGGGLVQAGGSLRLSCAASGSTLARYAMGWYRQAPGKERELVAAISWIGGSTYYADSVKGRFTISRDNAKNTVYLQMNSLKPEDTAVYFCAKDTYPWYIRNRYDYWGQGSQVTVSS”, the “polyreactivity (PSR sort gate)” value was “high polyreactivity”. For “QVQLVESGGGLVQAGGSLRLSCAASGSTLAVYAMGWYRQAPGKEREFFAAISWSGVSTYYADSVKGRFTISRDNAKNTVYLQMNSLKPEDTAVYYCAAKRVRALYGGSEGGYWGQGTQVTVSS”, the “polyreactivity (PSR sort gate)” value was “low polyreactivity”. With “QVQLVESGGGLVQAGGSLRLSCAASGSTLDFYAMGWYRPAPGKERELVAAITWRGGSTYYADSVKGRFTISRDNAKNTVYLQMNCLKPEDTAVYYCAAKSYWLKSQYYSWGQGTQVTVSS” the “polyreactivity (PSR sort gate)” value was “high polyreactivity”. In the case of “QVQLVESGGGLVQAGGSLRLSCAASGSTLDRYVMGWYRQAPGKERELVAAISRNGGSTYYADSVKGRFTISRDNAKNTVYLQMNSLKPEDTAVYYCARYAGFPYTQGDYWGQGTQVTVSS”, the “polyreactivity (PSR sort gate)” value was “high polyreactivity”. In the case of “QVQLVESGGGLVQAGGSLRLSCAASGSTLDTNAMGWYRQAPGKERELVAVIDSGGTTNYADSVKGRFTISRDNAKNTVYLQMNSLKPEDTAVYYCAADYAYFGYWFEGYDYWGQGTQVTVSS”, the “polyreactivity (PSR sort gate)” value was “low polyreactivity”. With “QVQLVESGGGLVQAGGSLRLSCAASGSTLERNAMGWYRQAPGKERELVAAITSSTGSTYYADSVKGRFTISRDNAKNTVYLQMNSLKPEDTAVYYFAKRVASVQSNRHDYWGQGTQVTVSS” the “polyreactivity (PSR sort gate)” value was “high polyreactivity”. For “QVQLVESGGGLVQAGGSLRLSCAASGSTLFNYTMGWYRQAPGKESELVAAISSGGSTNYADSEKGRFTISRDNAKNTFYLQMNSLKPEDTAVYYCATDHDPWSWYRYDYWGQGTQVTVSS”, the “polyreactivity (PSR sort gate)” value was “low polyreactivity”. In the case of “QVQLVESGGGLVQAGGSLRLSCAASGSTLFVNTKGWYRQAPGNERELVAAITSSGGSRYYADSVKGRFTISRDNAKNTVYLQMNSLKPQDTAVYYCAAKELGSPYDYWGQGTQVTVSS”, the “polyreactivity (PSR sort gate)” value was “high polyreactivity”. With “QVQLVESGGGLVQAGGSLRLSCAASGSTLFWNAMGWYRKAPGKERELVAVISFSGVSTYYADSVKGRFTISRDNAKNTVYLQLNSLKPEDTAVYYCAAGRCLYYYYGYVDKYGYWGQGTQVTVSS” the “polyreactivity (PSR sort gate)” value was “low polyreactivity”.
